The record followed here is publication PMC7803741 (2021).

Like-named read-outs stand apart in the source and are kept apart here.

What all share (experiment): ITC
Assay [1] concerns the target LC3B (mouse, UniProt Q9CQV6 1-120).
Assay [2] concerns the target GABARAPL2 (mouse, UniProt P60521 1-117).
Assay [3] deals with LC3A (mouse, UniProt Q91VR7 1-121).
The target of assay [4] is GABARAP E17A (mouse, UniProt Q9DCD6 1-117, E17A).
For assay [5], the target named is GABARAP K66E (mouse, UniProt Q9DCD6 1-117, K66E).
For assay [6], the target named is GABARAP K24E (mouse, UniProt Q9DCD6 1-117, K24E).
Assay [7] concerns the target T1, GABAAR-associated protein (GABARAP) (mouse, UniProt Q9DCD6 1-117).
The target of assay [8] is T1, GABAAR-associated protein (GABARAP). This is another data set of the same source.

T1 sequence (Q9DCD6 whole entry): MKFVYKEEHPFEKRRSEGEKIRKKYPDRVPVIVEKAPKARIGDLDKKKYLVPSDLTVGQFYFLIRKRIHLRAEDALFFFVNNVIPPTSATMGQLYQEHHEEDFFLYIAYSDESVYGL
Sequence of GABARAP K66E (Q9DCD6 whole entry K66E): as the sequence (Q9DCD6 whole entry) above, with K66E counted along it
Sequence of GABARAP K24E (Q9DCD6 whole entry K24E): as the sequence (Q9DCD6 whole entry) above, with K24E counted along it
Sequence of GABARAPL2 (P60521 whole entry): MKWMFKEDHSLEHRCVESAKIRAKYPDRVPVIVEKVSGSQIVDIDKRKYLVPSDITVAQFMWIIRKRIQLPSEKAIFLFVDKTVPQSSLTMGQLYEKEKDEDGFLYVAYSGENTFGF
Sequence of GABARAP E17A (Q9DCD6 whole entry E17A): as the sequence (Q9DCD6 whole entry) above, with E17A counted along it

B1: GABAAR γ2 subunit GIM (GABARAP interacting motif, 398–415) (peptide)
chain: ERDEEYGYECLDGKDCAS
Turning to B1, the Kd in assay [1] is above 300 µM; in assay [2], above 200 µM; in assay [3], above 300 µM; in assay [4] it was 6.8 µM; in assay [5], 23.6 µM; in assay [6], above 100 µM. This molecule also displayed a Kd in assay [7] of 6.8 µM.

B2: AnkB-WR peptide (peptide)
peptide: VEEERVIVSDEEIEEARQKAPLEITEY
As for B2, in assay [7], the equilibrium dissociation constant (Kd) was above 100 µM.

B3: GABAA receptor γ2 subunit 375-424 (domain or fragment)
chain: PAPTIDIRPRSATIQMNNATHLQERDEEYGYECLDGKDCASFFCCFEDCR
As to B3, the affinity in assay [8], expressed as Kd, was 5.1 µM.

B4: AnkG-ER peptide (peptide)
peptide: PEDDWTRFSSEEIREARQAAASHAPS
For B4, in assay [7], the Kd was 0.007 µM.

B5: AnkG-WT peptide (peptide)
chain: PEDDWTEFSSEEIREARQAAASHAPS
In the case of B5, the affinity in assay [7], expressed as Kd, was 0.007 µM.

One may read the Kd as the equilibrium constant for the complex coming apart. Read a low Kd as tighter binding.
